Common to all, as to experiment: ELISA
For orientation: In an ELISA, binding on a coated surface is turned into a signal by an enzyme label.

Assay [1] concerns the target clade-C (ZM109) V1V2-ferritin nanoparticle (V1V2-FR) (HIV-1 ZM109 (clade C) | ).
Assay [2] addresses N332 nanoparticle (1GUT_A_ES-FR).
In assay [3] the target is gp120-ferritin (gp120-FR) nanoparticle.

B1: PGT133 (antibody, V domains shown)
VH: QVHLQESGPGLVTPSETLSLTCTVSNGSVSGRFWSWIRQSPGRGLEWIGYFSDTDRSEYNPSLRSRLTLSVDRSKNQLSLRLKSVTAADSATYYCARAQQGKRIYGIVSFGEFFYYYYMDAWGKGTPVTVSS
VL: LSLAPGATAKIPCGERSRGSRAVQWYQQKPGQAPTLIIYNNQDRPAGVSERFSGNPDVAIGVTATLTISRVEVGDEADYYCHYWDSRSPISWIFGGGTQLTVL
With B1, the results for the EC50 in assay [1], in assay [2] and in assay [3] were 0.26 µg/mL, 0.024 µg/mL and 0.042 µg/mL, respectively.

B2: PGT124 (antibody, V domains shown)
VH: QVQLQESGPGLVRPSETLSVTCIVSGGSISNYYWTWIRQSPGKGLEWIGYISDRETTTYNPSLNSRAVISRDTSKNQLSLQLRSVTTADTAIYFCATARRGQRIYGVVSFGEFFYYYYMDVWGKGTAVTVSS
VL: SYVSPLSVALGETARISCGRQALGSRAVQWYQHKPGQAPILLIYNNQDRPSGIPERFSGTPDINFGTTATLTISGVEVGDEADYYCHMWDSRSGFSWSFGGATRLTVL
Turning to B2, the concentration giving a half-maximal response (EC50) (usually the midpoint of the concentration-response curve) turned out to be 0.03 µg/mL in assay [2] and 0.026 µg/mL in assay [3].

Source of the values: paper PMC5573810 (2017).
